Measured values from the supplement of paper PMC9732359.
± gives the uncertainty stated by the source.

Assay: protein stability index of a GFP-peptide fusion (yeast GPS) (PSI 1-4); higher = more stable; sorted into four equal gates, so the index is relative within each strain
Details: san1∆
In short: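 Yeast carrying a pooled library were grown to mid-log phase in leucine-free medium. Each library plasmid expresses Cherry and has a tiled 17-residue yeast protein peptide fused downstream of GFP. Cells were sorted into four equal gates by GFP/Cherry ratio, and plasmids from each gate were PCR-amplified, Illumina-sequenced and assigned to strains by barcode. Summing, across gates, the read frequency times the gate number gave each peptide's protein stability index.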

| Sequence | protein stability index |
| --- | --- |
| LPSEDSRAQILQIHSRK [RPT5] | 2.55 ± 0.064 |
| LPSPESLKTKLNSNIRA [SNF5] | 2.15 ± 0.061 |
| LPTPTPTEMEPDLDTEC [SWI1] | 2.77 ± 0.048 |
| LPTRYTLDVEAFKSVVS [RPL27A] | 1.62 ± 0.066 |
| LQAFGESESTTNVYSKD [RPB3] | 1.68 ± 0.076 |
| LQAQLDYLNAELGEFFV [FAS2] | 2.94 ± 0.17 |
| LQDLISVYGLDDISRQV [ROX3] | 2.84 ± 0.12 |
| LQDVIALSIADDASSAE [RPC53] | 2.16 ± 0.17 |
| LQEKNSGNLPLNELSAK [RPN13] | 3.08 ± 0.038 |
| LQGDLTFTKKCLENARS [SIR4] | 3.05 ± 0.047 |
| LQHELMISIIKLVTNVV [YML103C/NUP188] | 1.56 ± 0.18 |
| LQKALTVKTNDELMVIY [RPN8] | 1.84 ± 0.13 |
| LQLNEAEEFVAGVSHGT [SMX3] | 3.01 ± 0.28 |
| LQLTTNTEQGDSDELGG [SNM1] | 3.29 ± 0.11 |
| LQPFYSQPTAAGGPDMT [DSN1] | 1.88 ± 0.077 |
| LRAHTDDSRNPDCKIKI [PRE2] | 2.86 ± 0.085 |
| LRASFNKLSSILQNEHD [SRB4] | 1.52 ± 0.14 |
| LRDESLTVDNLSIAIVG [PRE5] | 2.5 ± 0.06 |
| LREHFKNTEEGKALVHH [QCR6] | 3.34 ± 0.057 |
| LRLFNAPDSEYLCFILS [SNF2] | 2.15 ± 0.042 |
| LRLKLFLYEILSSLKSF [SRB8] | 1.81 ± 0.082 |
| LRLTDVTNSLSNEEKEK [GAL11] | 2.52 ± 0.15 |
| LRNNLNSLIEEINERSE [YCG1] | 2.96 ± 0.075 |
| LRPGRIDRKVEFSLPDL [RPT1] | 3.2 ± 0.16 |
| LRRGNYAQRIGSGAPVY [HTA1] | 2.4 ± 0.26 |

| Sequence | protein stability index |
| --- | --- |
| LRRIITDLNQDSAAIIA [GRR1] | 2.6 ± 0.064 |
| LRSIYHQFHDILEEKTD [NSL1] | 2.18 ± 0.074 |
| LSAENIEERLVAIAEQD [SCL1] | 3.33 ± 0.061 |
| LSEIESLDEILLPANLL [SRP68] | 3.02 ± 0.042 |
| LSESDKKSKLISLYLLN [RPN12] | 2.07 ± 0.21 |
| LSFIQVRIDLGTIDKLQ [RPO31] | 2.06 ± 0.077 |
| LSFVDIVLSKAASALDE [SIR4] | 2.59 ± 0.14 |
| LSLDSDVKFPSNTTTQI [SMC3] | 2.81 ± 0.15 |
| LSLHENYPQDEINAVFN [POP1] | 3.05 ± 0.04 |
| LSPSDQFAPAFLNTPNN [SSN2] | 2.06 ± 0.13 |
| LSSETGIKLALDPNLIT [SRB4] | 2.92 ± 0.056 |
| LSSGESNEIKVTNDLDT [SIR4] | 2.88 ± 0.22 |
| LSSIEASLKIKNATDLQ [SMC3] | 2.56 ± 0.12 |
| LSTLRMEADPSLHPLFE [RPN9] | 2.18 ± 0.096 |
| LSVDDIRGAVGNSEAIP [RTT102] | 3.3 ± 0.056 |
| LTCLPVPPPPVRPSISF [RPO21] | 2.36 ± 0.033 |
| LTFMTCNSLHIPQDFEN [ESC2] | 2.19 ± 0.089 |
| LTFQPQQQTNALNGIDI [GRR1] | 3.02 ± 0.082 |
| LTGEATANALPLPAVFS [RPL4A] | 2.35 ± 0.068 |
| LTHRLGGDTCSSDGALC [POP1] | 3.17 ± 0.12 |
| LTIDDLGVASFHGTSTK [FAS2] | 3.03 ± 0.06 |
| LTKTTVNISAVDNTTEQ [YCG1] | 2.88 ± 0.1 |
| LTKYKEMERIVKNLTKY [SRP68] | 2.82 ± 0.04 |
| LTLRKAKAPSGLDQSRI [FAS1] | 3.17 ± 0.12 |
| LTLYLFQDYLTQQAVNL [IRR1] | 2.06 ± 0.15 |

| Sequence | protein stability index |
| --- | --- |
| LTNDTFEKKLSIIKAKL [YML103C/NUP188] | 2.43 ± 0.21 |
| LTNILRMMGCVKKQKSA [FAS2] | 1.81 ± 0.12 |
| LTPNEIKELEHLHDAVF [SWP82] | 3.13 ± 0.055 |
| LTVAMYINSDSVNPAML [RPO31] | 2.69 ± 0.14 |
| LTYDRLEFATIRKGAND [PRE9] | 2.62 ± 0.24 |
| LVDILPPDSDSSISVMG [RPT3] | 2.24 ± 0.065 |
| LVDTPSNNTAATADTTH [NUT1] | 3.21 ± 0.059 |
| LVEAAKLLKIPKFISEA [YDL116W/NUP84] | 2.46 ± 0.088 |
| LVEEKTPGLTFNAIDLA [RPC82] | 3.25 ± 0.057 |
| LVIGIFKRDLLREKEDK [YJL039C/NUP192] | 2.86 ± 0.069 |
| LVKALEDIMVHYDNTTR [RPO21] | 1.32 ± 0.086 |
| LVLLNGRLRNKSHKQTI [RPP1] | 2.98 ± 0.047 |
| LVLYDAENDVIEATDLG [BRR2] | 3.45 ± 0.092 |
| LVQLEPHLFVNGDLTVS [SSN2] | 1.53 ± 0.16 |
| LVQLKKFSDLKFILQIL [YML103C/NUP188] | 2.34 ± 0.11 |
| LVSANNDNNSPHTPVTR [YLR018C/POM34] | 2.92 ± 0.08 |
| LVSMRYPEDKKTQQNEK [RPN3] | 3.24 ± 0.039 |
| LVSSYLNKSDLLDKYGK [YML103C/NUP188] | 3.17 ± 0.053 |
| LVVRFTNKDIICQIISS [RPL5] | 1.25 ± 0.18 |
| LWDQDIAIAGTGQIEGL [COR1] | 3.05 ± 0.055 |
| LWINYIKELLNITKNLK [POP4] | 1.62 ± 0.11 |
| LWSGKQILSVAIPNGIH [RPO21] | 1.37 ± 0.088 |
| LYDRPLKPDLNKITNQG [NAS6] | 3.11 ± 0.07 |
| LYEKDIVPSMTHLEIEP [RET1] | 2.73 ± 0.09 |
| LYGLNLTLRKAKAPSGL [FAS1] | 3.53 ± 0.068 |

| Sequence | protein stability index |
| --- | --- |
| LYKIFSYALSMEKDKLK [SNU114] | 1.63 ± 0.17 |
| LYPDSSSFKKNLLKFIT [RPN3] | 1.05 ± 0.13 |
| LYQTYHVLVGDLIKFSA [FAS1] | 2.39 ± 0.044 |
| LYSGLIIDEIITQMRVN [RPC82] | 2.71 ± 0.2 |
| LYTLVINDAGKAKKLIQ [RPL38] | 1.99 ± 0.1 |
| MACNFQFPEIAYPGKLI [CSL4] | 2.76 ± 0.12 |
| MADLQKQENSSRFTNVS [YMR153W/NUP53] | 2.36 ± 0.24 |
| MAGLMHFKKPDITVHGE [RRP45] | 1.76 ± 0.16 |
| MAGSQFENGNITGEDEV [RRP45] | 3.13 ± 0.13 |
| MAIEIINDIRDDDIEKQ [YCG1] | 3.19 ± 0.11 |
| MAKTLKDLDGWQVIITD [SIR3] | 2.81 ± 0.14 |
| MAKVHGSLARAGKVKSQ [RPS30A] | 2.49 ± 0.066 |
| MAPYLPGSRASSRFIKG [RPN2] | 2.45 ± 0.063 |
| MASNEVLVLRGTLEGHN [ASC1] | 3.24 ± 0.13 |
| MCGVIVKQYNKKWPQFY [SIN4] | 1.62 ± 0.097 |
| MDKPLNFRILKSFTNDK [SRB5] | 3.14 ± 0.042 |
| MENIKKSIDSKTPEEVE [ISW2] | 3.13 ± 0.089 |
| MENILQRCKSNAISLQL [YIL149C/MLP2] | 2.05 ± 0.071 |
| MESEEVPLTKRYQHLEK [PCI8] | 2.92 ± 0.048 |
| MEYLSGGEKTVAALALL [SMC1] | 1.68 ± 0.19 |
| MFKLGNFESPVLKELSR [YLR018C/POM34] | 2.85 ± 0.15 |
| MFNPLHESYCLPMDTNL [YMR129W/POM152] | 2.75 ± 0.058 |
| MFQSQSQLQPQPQPQPQ [YDL088C/ASM4] | 2.29 ± 0.068 |
| MGDNSQLDFTEFDEQYG [SNF2] | 3.31 ± 0.052 |
| MGPLYQNFAEFMTKLLE [IRR1] | 3.03 ± 0.13 |

Same assay, conditions: ubr1∆

| Sequence | protein stability index |
| --- | --- |
| LPSEDSRAQILQIHSRK [RPT5] | 2.89 ± 0.04 |
